How the values were obtained:
[1] = target: T1, 129 mouse SIRPα, three extracellular IgSF domains (3d) (mouse, UniProt P97797 32-369, biotin (on the biotinylation sequence)); experiment: SPR; biotinylated SIRPα variants bound to streptavidin immobilised on a BIAcore CM5 chip, BIAcore 3000, 37°; dilutions of monomeric recombinant CD47 extracellular domain passed over; affinity from equilibrium binding; conditions: one partner purified
T1 sequence (looked up): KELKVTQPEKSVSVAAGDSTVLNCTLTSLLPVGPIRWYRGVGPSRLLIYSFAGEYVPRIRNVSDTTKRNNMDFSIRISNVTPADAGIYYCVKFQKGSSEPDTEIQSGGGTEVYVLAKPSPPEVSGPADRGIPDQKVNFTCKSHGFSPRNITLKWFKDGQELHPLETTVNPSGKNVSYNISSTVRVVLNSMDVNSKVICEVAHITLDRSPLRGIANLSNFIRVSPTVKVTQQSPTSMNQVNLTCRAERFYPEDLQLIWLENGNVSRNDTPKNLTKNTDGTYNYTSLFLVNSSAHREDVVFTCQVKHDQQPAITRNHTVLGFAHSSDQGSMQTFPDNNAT

[2] = target: T2, C57BL/6 mouse SIRPα, N-terminal domain (d1) (mouse, biotin (on the biotinylation sequence)); experiment: as above; conditions: one partner purified
T2 sequence (P97797 whole entry, looked up): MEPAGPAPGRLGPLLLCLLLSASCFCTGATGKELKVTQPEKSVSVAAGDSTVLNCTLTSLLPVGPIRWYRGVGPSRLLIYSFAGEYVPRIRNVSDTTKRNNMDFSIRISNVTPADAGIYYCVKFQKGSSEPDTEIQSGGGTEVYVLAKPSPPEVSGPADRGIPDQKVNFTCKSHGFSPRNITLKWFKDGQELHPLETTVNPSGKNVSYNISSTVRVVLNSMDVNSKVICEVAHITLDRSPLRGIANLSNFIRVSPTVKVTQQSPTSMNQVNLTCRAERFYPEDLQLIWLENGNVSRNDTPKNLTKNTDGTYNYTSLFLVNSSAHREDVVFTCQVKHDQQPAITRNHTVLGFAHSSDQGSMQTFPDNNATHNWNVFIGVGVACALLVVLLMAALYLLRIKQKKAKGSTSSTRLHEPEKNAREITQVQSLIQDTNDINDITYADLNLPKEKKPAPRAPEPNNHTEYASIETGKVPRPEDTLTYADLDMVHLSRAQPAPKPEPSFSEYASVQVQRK

B1: mouse CD47 IgSF domain, monomeric recombinant extracellular domain (domain or fragment)
chain: QLLFSNVNSIEFTSGNETVVIPCIVRNVEAQSTEEMFVKWKLNKSYIFIYDGNKNSTTTDQNFTSAKISVSDLINGIASLKMDKRDAMVGNYTCEVTELSREGKTVIELKNRTVSWFSPNE
[1]
  Kd: 2.5 µM
[2]
  Kd: 5.3 µM
